Experimental data reported in patent US20240270839A1 (ELPISCIENCE SUZHOU BIOPHARMA, published 2024).
Residue numbers refer to the chain shown, from its start.

B1: IMAB362 (Zolbetuximab) (antibody, human IgG1, kappa, V domains shown)
VH: QVQLQQPGAELVRPGASVKLSCKASGYTFTSYWINWVKQRPGQGLEWIGNIYPSDSYTNYNQKFKDKATLTVDKSSSTAYMQLSSPTSEDSAVYYCTRSWRGNSFDYWGQGTTLTVSS
VL: DIVMTQSPSSLTVTAGEKVTMSCKSSQSLLNSGNQKNYLTWYQQKPGQPPKLLIYWASTRESGVPDRFTGSGSGTDFTLTISSVQAEDLAVYYCQNDYSYPFTFGSGTKLEIKR
B2: 35B4 (antibody, V domains shown)
VH: EAKLVESGGDFMQPGGSLKLSCAASGFTLSSYALSWVRQTPEKRLEWVAYISNLGGSTFYPDTVKGRFTISRDNARNTLFLQMSSLQSEDTAIYYCATHLYNYDAFASWGQGTLVTVSA
VL: QIVLSQSPAILSASPGEKVTMTCRASSSVNYIHWYQQKPGSSPKAWIYATSNLASGVPTRFSGSGSGTSYSLTIDRVEAEDAATYYCQQWNSNPLTFGAGTKLELK
notes: mouse hybridoma antibody, purified; also called clone 35B4
B3: 33G12 (antibody, V domains shown)
VH: EVKLVESGGGLVQPGGSLKLSCAASGFTFSRYAMSWVRQTPEKRLEWVAYISIGGTTYYPDTIKGRFTISRDNAKNTLYLQMSSLKSEDTAMYYCTRHYYGHDVMDYWGQGTSVTVSS
VL: B2 VL with A9T, S26T, N30S, I32M, Y35F, A45P, T59A, D75S, N91S, S92R
notes: mouse hybridoma antibody, purified; also called clone 33G12
B4: 97A9 (antibody, V domains shown)
VH: QVQLQQSGPELVKPGASMKLSCKASGYSFTRNDINWVKQRPGQGLEWIGLSYPRDGTTQYNGKFKGKATLTVDTSSSTAYMELRSLTSEDSAVYFCARGYYGNSFAYWGQGTLVTVSA
VL: DIVMTQSPSSLTVTAGEKVTMSCKSSQSLLNSGNQKNYLTWYQQKPGQPPKLLIYWASTRESGVPDRFTGSGSGTYFTLTISSVQAEDLAVYFCQNDYYFPYTFGGGTKLEIK
notes: mouse hybridoma antibody, purified; also called clone 97A9
B5: 60F11 (antibody, V domains shown)
VH: QVQLQQPGAELVKPGASVKLSCKASGYTFTSYWMHWVKQRPGQGLEWIGMIHPNSGSTNYNEKFKSKATLTVDKSSSTAYMQLSSLTSEDSAVYYCARMGLGNAMDYWGQGTSVTVSS
VL: B4 VL with M21L, K36R, Y76D, F93Y, D97A, Y99S, F100Y, Y102L, G106A, I112L
notes: mouse hybridoma antibody, purified; also called clone 60F11
B6: 22E12 (antibody, V domains shown)
VH: QVQLQQPGTELVKTGTSVKLSCKASGYTFTNWVHWVIQRPGQGLEWIGEINPTNGRSNYNEKFKKKATLTLDRSSTTAYMQLSSLTSEDSAVYFCAGIYYGNSFAHWGQGTLVTVSA
VL: B4 VL with M21L, A57S, Y76D, F93H, D97N, F100Y, Y102L, G106A, I112L
notes: mouse hybridoma antibody, purified; also called clone 22E12
B7: 99H8 (antibody, V domains shown)
VH: QVQLQQSGPELVKPGASVKLSCKASGYSFTNFDINWVKQRPGQGLQWIGRLYPRDGTTTYNEKFKGKASLTVDTSSTTSYMDLHSLTSEDSAVYFCVRGNYGNSFAYWGQGTLVTVSA
VL: DIVMTQSPSSLTVTAREKVIMNCKSSQSLFNSGNQKNYLTWYQQKPGQSPKLLIYWASTRQSGVPDRFTGSGSGTDFTLTISTVQAEDLAVYFCQNGFSFPYTFGGGTKLEMN
notes: mouse hybridoma antibody, purified; also called clone 99H8

Legend:
[1] = biological target: T1, human CLDN18.2 (hCLDN18.2), expressed on cells (human); assay: FACS, MFC cells over-expressing hCLDN18.2; MFC cells; second panel, run beside the hu22E12 H3 and H4 variants
T1 construct: the constructs in the cell lines are not described; also called Claudin18.2; HEK293-hCLDN18.2

[2] = biological target: T1, human CLDN18.2 (hCLDN18.2), expressed …; assay: cell-based or functional assay
[3] = biological target: T1, human CLDN18.2 (hCLDN18.2), expressed …; assay: cell-based or functional assay; remark: listed apart in the source
[4] = biological target: T1, human CLDN18.2 (hCLDN18.2), expressed …; assay: FACS, MFC cells over-expressing hCLDN18.2; MFC cells; first panel, run beside the hu22E12 H1 and H2 variants
[5] = biological target: T1, human CLDN18.2 (hCLDN18.2), expressed …; assay: FACS, HEK293/hCLDN18.2 cells; FACS, HEK293/hCLDN18.2 cells (stable over-expression)
[6] = biological target: T1, human CLDN18.2 (hCLDN18.2), expressed …; assay: FACS, SNU620 cells (endogenous CLDN18.2)
[7] = biological target: T1, human CLDN18.2 (hCLDN18.2), expressed …; assay: FACS, HEK293/hCLDN18.2 cells
[8] = biological target: T1, human CLDN18.2 (hCLDN18.2), expressed …; assay: FACS, SNU620 cells (endogenous CLDN18.2); FACS, SNU620 cells (native CLDN18.2)

| Binder | EC50 [6] [nM] | EC50 [7] [nM] | other results |
| --- | --- | --- | --- |
| B1 | – | – | EC50 [1]: 42.7 nM; PBMC VS NUGC4 ADCC (EC50 nM) [2]: 25.1 nM; ADCC EC50 (nM), NK-CD16a effector cells [3]: 0.228 nM; EC50 [4]: 23.5 nM; EC50 [5]: 0.71 nM |
| B2 | 3.8 | 0.85 | – |
| B3 | 1.1 | 0.56 | – |
| B4 | 3.3 | 1.6 | – |
| B5 | – | – | EC50 [8]: 3.5 nM; EC50 [5]: 0.81 nM |
| B6 | 2.1 | 0.86 | – |
| B7 | 19 | 1.1 | – |
